How the values were obtained:
Assay in all cases: surface plasmon resonance, Dectin-1 immobilized
[1] = molecular target: T1, murine annexin A1 core domain (murine, UniProt P10107 41-346, limits assumed)
T1 construct: domain: core domain; also called mAnxA1 core; AnxA1 core domain
T1 sequence (looked up): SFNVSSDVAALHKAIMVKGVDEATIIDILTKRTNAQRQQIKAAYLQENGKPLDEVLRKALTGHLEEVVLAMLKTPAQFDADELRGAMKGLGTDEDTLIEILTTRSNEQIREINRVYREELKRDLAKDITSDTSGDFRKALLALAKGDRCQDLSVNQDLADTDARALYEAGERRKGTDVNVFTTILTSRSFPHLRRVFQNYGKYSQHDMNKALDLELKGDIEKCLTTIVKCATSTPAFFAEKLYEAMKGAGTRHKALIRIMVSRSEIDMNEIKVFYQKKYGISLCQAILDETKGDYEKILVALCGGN

[2] = molecular target: T2, recombinant murine annexin A1 (murine, UniProt P10107 1-346)
T2 construct: Expressed in E. coli from pET41a with C-terminal FLAG tag, PreScission site and Protein A tag; the Protein A tag is cleaved off; also called mAnx1; mAnxA1; not shown: C-terminal FLAG tag and what remains of the PreScission site after cleavage
T2 sequence (looked up): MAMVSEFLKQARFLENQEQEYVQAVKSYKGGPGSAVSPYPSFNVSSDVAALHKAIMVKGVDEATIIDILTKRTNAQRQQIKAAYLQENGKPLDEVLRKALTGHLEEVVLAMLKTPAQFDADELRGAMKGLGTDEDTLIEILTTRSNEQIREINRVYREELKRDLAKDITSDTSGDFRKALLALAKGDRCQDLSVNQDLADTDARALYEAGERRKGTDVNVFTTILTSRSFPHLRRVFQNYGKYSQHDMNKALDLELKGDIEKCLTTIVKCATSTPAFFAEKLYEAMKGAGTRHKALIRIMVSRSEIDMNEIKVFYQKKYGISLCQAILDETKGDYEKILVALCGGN

[3] = molecular target: T3, recombinant murine annexin A5 (murine, UniProt P48036 1-319)
T3 construct: Recombinant protein; also called mAnxA5; AnxA5
T3 sequence (looked up): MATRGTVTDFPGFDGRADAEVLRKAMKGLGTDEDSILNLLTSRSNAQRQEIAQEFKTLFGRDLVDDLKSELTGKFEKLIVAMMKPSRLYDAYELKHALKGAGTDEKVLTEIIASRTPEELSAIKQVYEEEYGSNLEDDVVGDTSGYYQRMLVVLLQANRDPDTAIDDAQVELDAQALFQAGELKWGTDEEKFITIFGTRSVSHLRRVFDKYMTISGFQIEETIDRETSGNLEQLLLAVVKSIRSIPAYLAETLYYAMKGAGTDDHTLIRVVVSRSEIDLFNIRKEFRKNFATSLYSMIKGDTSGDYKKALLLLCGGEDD

[4] = molecular target: T4, recombinant murine annexin A13 (murine, UniProt Q99JG3 1-317)
T4 construct: Recombinant protein; also called mAnxA13; AnxA13
T4 sequence (looked up): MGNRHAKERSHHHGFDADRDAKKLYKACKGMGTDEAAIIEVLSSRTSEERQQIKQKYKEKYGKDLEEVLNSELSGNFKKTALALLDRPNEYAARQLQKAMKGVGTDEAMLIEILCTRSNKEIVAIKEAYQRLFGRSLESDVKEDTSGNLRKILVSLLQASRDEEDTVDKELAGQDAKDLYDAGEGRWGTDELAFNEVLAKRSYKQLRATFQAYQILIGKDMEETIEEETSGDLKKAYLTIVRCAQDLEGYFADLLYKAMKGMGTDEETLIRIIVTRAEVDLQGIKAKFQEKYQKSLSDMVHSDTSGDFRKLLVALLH

Kd [1]: ~100 nM
Kd [2]: ~100 nM
Kd [3]: ~100 nM
Kd [4]: ~100 nM
B1: Dectin-1 (receptor)
chain: GHNSGRNPEEKDNFLSRNKENHKPTESSLDEKVAPSKASQTTGGFSQPCLPNWIMHGKSCYLFSFSGNSWYGSKRHCSQLGAHLLKIDNSKEFEFIESQTSSHRINAFWIGLSRNQSEGPWFWEDGSAFFPNSFQVRNTAPQESLLHNCVWIHGSEVYNQICNTSSYSICEKEL

— patent US20180275124A1 (DEUTSCHES KREBSFORSCHUNGSZENTRUM STIFTUNG DES FFENTLICHEN …, published 2018)
